{"source": "patent US20240116985A1", "about": "(published 2024)", "binders": {"B1": {"name": "I-1802 (peptide)", "peptide": "Ac-[αAllylPro]D[tBuAla][B5(3)]D[TfeGA″]AAFL[PyrS2″][3Thi][Bta][(4MePpzPip)GlnR]-NH2", "modifications": "staple 1-4, 4-11; not fully specified; reading uncertain"}, "B2": {"name": "I-1807 (peptide)", "peptide": "Ac-[αAllylPro]D[tBuAla][S5]DDAAFL[Aib][3Thi][Bta]Q-NH2", "modifications": "staple 1-4; not fully specified; printed as Ac-PL3-Asp-Npg-S5-Asp-Asp-Ala-Ala-Phe-Leu-Aib-3Thi-BztA-Gln-NH2"}, "B3": {"name": "I-1804 (peptide)", "peptide": "Ac-[αAllylPro]D[tBuAla][B5(3)]D[TfeGA]AAFL[PyrS2″][3Thi][Bta][(RDMAPyr)GlnR]-NH2", "modifications": "staple 1-4, 4-11; not fully specified"}, "B4": {"name": "I-1808 (peptide)", "peptide": "Ac-[αAllylPro]D[tBuAla][B5(3)]DDAAFL[PyrS2″][3Thi][Bta]Q-NH2", "modifications": "staple 1-4, 4-11; also: staple olefins reduced to -CH2-CH2-"}, "B5": {"name": "I-1815 (peptide)", "peptide": "Ac-[αAllylPro]D[tBuAla][B5(19)]DDAAFL[PyrS1][3Thi][Bta]Q-NH2", "modifications": "staple 1-4, 4-11; not fully specified; printed as Ac-PL3-Asp-Npg-B5-Asp-Asp-Ala-Ala-Phe-Leu-PyrS1-3Thi-BztA-Gln-NH2"}, "B6": {"name": "I-1813 (peptide)", "peptide": "Ac-[αAllylPro]D[tBuAla][B5(19)]DDAAFN[PyrS1][3Thi][Bta]Q-NH2", "modifications": "staple 1-4, 4-11; not fully specified; printed as Ac-PL3-Asp-Npg-B5-Asp-Asp-Ala-Ala-Phe-Asn-PyrS1-3Thi-BztA-Gln-NH2"}, "B7": {"name": "I-1805 (peptide)", "peptide": "Ac-[αAllylPro]D[tBuAla][B5(3)]D[TfeGA]AAFL[PyrS2″][3Thi][Bta][(RDMAPyr)GlnR]-NH2", "modifications": "staple 1-4, 4-11; not fully specified"}, "B8": {"name": "I-1803 (peptide)", "peptide": "Ac-[αAllylPro]D[tBuAla][B5(3)]D[TfeGA]AAFL[PyrS2″][3Thi][Bta][(TfePpz)GlnR]-NH2", "modifications": "staple 1-4, 4-11"}, "B9": {"name": "I-1905 (peptide)", "peptide": "Ac-[αAllylPro]D[tBuAla][B5(12)]D[Phe(3-COOH)]AAFL[PyrS2(4)][Phe(2-Cl)][Bta]S[Thr(ol)]", "modifications": "staple 1-4, 4-11; not fully specified; printed as Ac-PL3-Asp-Npg-B5-Asp-3COOHF-Ala-Ala-Phe-Leu-PyrS2-2C1F-BztA-Ser-Thro1; reading uncertain"}, "B10": {"name": "I-1910 (peptide)", "peptide": "Ac-[αAllylPro]D[tBuAla][B5(12)]D[Phe(3-COOH)]HAFL[PyrS2(4)][3Thi][Bta]F-NH2", "modifications": "staple 1-4, 4-11; not fully specified; printed as Ac-PL3-Asp-Npg-B5-Asp-3COOHF-His-Ala-Phe-Leu-PyrS2-3Thi-BztA-Phe-NH2; reading uncertain"}, "B11": {"name": "I-1902 (peptide)", "peptide": "Ac-[αAllylPro]D[tBuAla][B5(5)]D[Phe(3-COOH)]SAFL[PyrS2(4)][Phe(2-Cl)][Bta]S-NH2", "modifications": "staple 1-4, 4-11; not fully specified; printed as Ac-PL3-Asp-Npg-B5-Asp-3COOHF-Ser-Ala-Phe-Leu-PyrS2-2C1F-BztA-Ser-NH2; reading uncertain"}, "B12": {"name": "I-1903 (peptide)", "peptide": "Ac-[αAllylPro]D[tBuAla][B5(12)]D[Phe(3-COOH)]AAFS[PyrS2(4)][Phe(2-Cl)][Bta]S-NH2", "modifications": "staple 1-4, 4-11; not fully specified; printed as Ac-PL3-Asp-Npg-B5-Asp-3COOHF-Ala-Ala-Phe-Ser-PyrS2-2C1F-BztA-Ser-NH2; reading uncertain"}, "B13": {"name": "I-1912 (peptide)", "peptide": "Ac-[αAllylPro]D[tBuAla][B5(5)]D[Phe(3-COOH)]QAFL[PyrS2(4)][3Thi][Bta]F-NH2", "modifications": "staple 1-4, 4-11; not fully specified; printed as Ac-PL3-Asp-Npg-B5-Asp-3COOHF-Gln-Ala-Phe-Leu-PyrS2-3Thi-BztA-Phe-NH2; reading uncertain"}, "B14": {"name": "I-1909 (peptide)", "peptide": "Ac-[αAllylPro]D[tBuAla][B5(12)]D[Phe(3-COOH)][Lys(iPr)]AFL[PyrS2(4)][3Thi][Bta]F-NH2", "modifications": "staple 1-4, 4-11; not fully specified; printed as Ac-PL3-Asp-Npg-B5-Asp-3COOHF-iPrLys-Ala-Phe-Leu-PyrS2-3Thi-BztA-Phe-NH2; reading uncertain"}, "B15": {"name": "I-1898 (peptide)", "peptide": "Ac-[αAllylPro]D[tBuAla][B5(5)]D[Phe(3-COOH)]AAFL[PyrS2][Cba][Bta]S-NH2", "modifications": "staple 1-4, 4-11; not fully specified; printed as Ac-PL3-Asp-Npg-B5-Asp-3COOHF-Ala-Ala-Phe-Leu-PyrS2-Cba-BztA-Ser-NH2"}, "B16": {"name": "I-1890 (peptide)", "peptide": "Ac-[αAllylPro]D[tBuAla][B5(5)]DRAAFN[PyrS2][3Thi][Bta]Q-NH2", "modifications": "staple 1-4, 4-11; not fully specified; printed as Ac-PL3-Asp-Npg-B5-Asp-Arg-Ala-Ala-Phe-Asn-PyrS2-3Thi-BztA-Gln-NH2"}, "B17": {"name": "I-1911 (peptide)", "peptide": "Ac-[αAllylPro]D[tBuAla][B5(12)]D[Phe(3-COOH)]KAFL[PyrS2(4)][3Thi][Bta]F-NH2", "modifications": "staple 1-4, 4-11; not fully specified; printed as Ac-PL3-Asp-Npg-B5-Asp-3COOHF-Lys-Ala-Phe-Leu-PyrS2-3Thi-BztA-Phe-NH2; reading uncertain"}, "B18": {"name": "I-1901 (peptide)", "peptide": "Ac-[αAllylPro]D[tBuAla][B5(5)]D[Phe(3-COOH)]SAFL[PyrS2][Phe(2-Cl)][Bta]S-NH2", "modifications": "staple 1-4, 4-11; not fully specified; printed as Ac-PL3-Asp-Npg-B5-Asp-3COOHF-Ser-Ala-Phe-Leu-PyrS2-2C1F-BztA-Ser-NH2"}, "B19": {"name": "I-1904 (peptide)", "peptide": "Ac-[αAllylPro]D[tBuAla][B5(12)]D[Phe(3-COOH)]AAFL[PyrS2(4)][Phe(2-Cl)][Bta]N-NH2", "modifications": "staple 1-4, 4-11; not fully specified; printed as Ac-PL3-Asp-Npg-B5-Asp-3COOHF-Ala-Ala-Phe-Leu-PyrS2-2C1F-BztA-Asn-NH2; reading uncertain"}, "B20": {"name": "I-1906 (peptide)", "peptide": "Ac-[αAllylPro]D[tBuAla][B5(12)]D[Phe(3-COOH)]AAFL[PyrS2(4)][Phe(2-Cl)][Bta]S-Prolinol", "modifications": "staple 1-4, 4-11; not fully specified; printed as Ac-PL3-Asp-Npg-B5-Asp-3COOHF-Ala-Ala-Phe-Leu-PyrS2-2C1F-BztA-Ser-Prool; reading uncertain"}, "B21": {"name": "I-1891 (peptide)", "peptide": "Ac-[αAllylPro]D[tBuAla][B5(5)]DRAAFN[PyrS2][3Thi][Bta]Q-NH2", "modifications": "staple 1-4, 4-11; not fully specified; printed as Ac-PL3-Asp-Npg-B5-Asp-Arg-Ala-Ala-Phe-Asn-PyrS2-3Thi-BztA-Gln-NH2"}}, "note": "Starred links: 1 amine or outer side, 2 acyl side, 3 side chain; linkers in the order of their positions; H or OH if unused. Positions of bridges follow the written chain, without caps; N, C: chain ends. Non-standard residues stand in square brackets, D forms with d. Primed or numbered codes have the meaning given here. *: point of attachment. PyrS2″ = (S)-3-amino-1-((pent-4-en-1-yloxy)carbonyl)pyrrolidine-3-carboxylic acid (stapling residue), C=CCCCOC(=O)N1CC[C@@](N[*:1])(C(=O)[*:2])C1; (TfePpz)GlnR = (S)-2-amino-5-oxo-5-(4-(2,2,2-trifluoroethyl)piperazin-1-yl)pentanoic acid, O=C(CC[C@H](N[*:1])C(=O)[*:2])N1CCN(CC(F)(F)F)CC1; (RDMAPyr)GlnR = (S)-2-amino-5-((R)-3-(dimethylamino)pyrrolidin-1-yl)-5-oxopentanoic acid, CN(C)[C@@H]1CCN(C(=O)CC[C@H](N[*:1])C(=O)[*:2])C1; B5(5) = 2,2-bis(4-pentenyl)glycine, 2-amino-2-(pent-4-en-1-yl)hept-6-enoic acid (stitching residue), C=CCCCC(CCCC=C)(N[*:1])C(=O)[*:2]; TfeGA = (S)-2-amino-3-((carboxymethyl)(2,2,2-trifluoroethyl)amino)propanoic acid, O=C([C@H](CN(CC(=O)[*:3])CC(F)(F)F)N[*:1])[*:2]; PyrS2 = (S)-3-amino-1-((pent-4-en-1-yloxy)carbonyl)pyrrolidine-3-carboxylic acid, C=CCCCOC(=O)N1CC[C@@](N[*:1])(C(=O)[*:2])C1; PyrS1 = (S)-3-amino-1-((but-3-en-1-yloxy)carbonyl)pyrrolidine-3-carboxylic acid, C=CCCOC(=O)N1CC[C@@](N[*:1])(C(=O)[*:2])C1; B5(12) = 2-amino-2-(pent-4-en-1-yl)hept-6-enoic acid (two olefin side chains), C=CCCCC(CCCC=C)(N[*:1])C(=O)[*:2]; B5(19) = 2-amino-2-(pent-4-en-1-yl)hept-6-enoic acid (bis(4-pentenyl)glycine), C=CCCCC(CCCC=C)(N[*:1])C(=O)[*:2]; B5(3) = 2,2-bis(4-pentenyl)glycine (stitching residue), C=CCCCC(CCCC=C)(N[*:1])C(=O)[*:2]; Phe(3-COOH) = N[C@@H](Cc1cccc(C(=O)O)c1)C(=O)O; Phe(2-Cl) = N[C@@H](Cc1ccccc1Cl)C(=O)O; Bta = N[C@@H](Cc1csc2ccccc12)C(=O)O; Lys(iPr) = CC(C)NCCCC[C@H](N)C(=O)O; αAllylPro = C=CC[C@@]1(C(=O)O)CCCN1; tBuAla = CC(C)(C)C[C@H](N)C(=O)O; 3Thi = N[C@@H](Cc1ccsc1)C(=O)O; Thr(ol) = C[C@@H](O)[C@H](N)CO; Cba = N[C@@H](CC1CCC1)C(=O)O; PyrS2(4) = not defined here; S5 = C=CCCC[C@](C)(N)C(=O)O; Prolinol = OC[C@@H]1CCCN1*; TfeGA″ = not defined here; Aib = CC(C)(N)C(=O)O"}
{"biological_target": "T1, B-cat-Halo (beta-catenin HaloTag NanoBRET construct expressed in HEK293 cells) (UniProt P35222 1-781, HaloTag NanoBRET 618 Ligand bound in the assay)", "T1 sequence (looked up)": "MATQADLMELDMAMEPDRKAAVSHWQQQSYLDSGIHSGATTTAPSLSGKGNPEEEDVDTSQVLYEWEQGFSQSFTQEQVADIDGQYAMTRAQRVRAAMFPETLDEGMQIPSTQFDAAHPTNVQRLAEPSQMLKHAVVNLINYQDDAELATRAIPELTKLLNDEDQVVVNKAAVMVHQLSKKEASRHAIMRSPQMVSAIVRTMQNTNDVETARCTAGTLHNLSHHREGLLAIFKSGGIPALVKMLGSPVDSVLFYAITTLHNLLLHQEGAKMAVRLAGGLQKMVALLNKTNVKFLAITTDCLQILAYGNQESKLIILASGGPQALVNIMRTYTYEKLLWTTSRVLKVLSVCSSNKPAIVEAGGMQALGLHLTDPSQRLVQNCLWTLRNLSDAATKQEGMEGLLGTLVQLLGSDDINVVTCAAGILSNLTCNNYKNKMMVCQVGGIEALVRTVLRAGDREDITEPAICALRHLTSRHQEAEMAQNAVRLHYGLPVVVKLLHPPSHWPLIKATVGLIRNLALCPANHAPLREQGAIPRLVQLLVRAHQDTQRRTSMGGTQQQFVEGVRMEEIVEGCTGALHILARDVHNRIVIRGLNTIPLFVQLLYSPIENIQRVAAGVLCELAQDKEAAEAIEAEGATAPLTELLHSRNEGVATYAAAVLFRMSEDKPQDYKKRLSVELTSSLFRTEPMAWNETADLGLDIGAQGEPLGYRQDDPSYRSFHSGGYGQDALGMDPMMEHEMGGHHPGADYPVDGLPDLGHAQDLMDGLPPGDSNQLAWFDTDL", "experiment": "cell-based or functional assay", "units": {"NanoBRET Abs IC50": "µM"}}
{"binder": "B1", "NanoBRET Abs IC50": 25.2}
{"binder": "B2", "NanoBRET Abs IC50": "> 20"}
{"binder": "B3", "NanoBRET Abs IC50": 9.4}
{"binder": "B4", "NanoBRET Abs IC50": 14}
{"binder": "B5", "NanoBRET Abs IC50": "> 20"}
{"binder": "B6", "NanoBRET Abs IC50": "> 20"}
{"binder": "B7", "NanoBRET Abs IC50": 9.3}
{"binder": "B8", "NanoBRET Abs IC50": 7.4}
{"biological_target": "T2, B-cat-Halo (beta-catenin HaloTag NanoBRET construct expressed in HEK293 cells) (UniProt P35222 1-781)", "T2 sequence (looked up)": "T1 sequence (looked up)", "experiment": "cell-based or functional assay", "units": {"NanoBRET Abs IC50": "µM"}}
{"binder": "B9", "NanoBRET Abs IC50": 9.7}
{"binder": "B10", "NanoBRET Abs IC50": 13.8}
{"binder": "B11", "NanoBRET Abs IC50": 7.7}
{"binder": "B12", "NanoBRET Abs IC50": 6.4}
{"binder": "B13", "NanoBRET Abs IC50": 11.5}
{"binder": "B14", "NanoBRET Abs IC50": "> 20"}
{"binder": "B15", "NanoBRET Abs IC50": 10.9}
{"binder": "B16", "NanoBRET Abs IC50": "> 20"}
{"binder": "B17", "NanoBRET Abs IC50": "> 20"}
{"binder": "B18", "NanoBRET Abs IC50": 4.9}
{"binder": "B19", "NanoBRET Abs IC50": 4.2}
{"binder": "B20", "NanoBRET Abs IC50": 15.5}
{"binder": "B21", "NanoBRET Abs IC50": "> 20"}
